Test results reported in paper doi:10.1101/2024.02.16.580631 (bioRxiv, 2024).

Molecular target: the molecule itself
Assay: crystal structure

B1: Nucleoside diphosphate kinase B (NDPKB), human (enzyme)
chain: ANLERTFIAIKPDGVQRGLVGEIIKRFEQKGFRLVAMKFLRASEEHLKQHYIDLKDRPFFPGLVKYMNSGPVVAMVWEGLNVVKTGRVMLGETNPADSKPGTIRGDFCIQVGRNIIHGSDSVKSAEKEISLWFKPEELVDYKSCAHDWVYE
modifications: phosphorylated histidine at 118 (His 118-P) in the crystal
  stoichiometry N: 6
